Results on two substances are retold here after article PMC8265671.

For this assay, the target named is FLAG-tagged TgMLC1 C(8,11)S (Toxoplasma gondii). Nature of the assay: co-IP; anti-FLAG M2 affinity resin, Triton X-100 extract of parasites in FLAG lysis buffer (10 mM imidazole pH 7.4, 300 mM NaCl, 1 mM EGTA, 5 mM MgCl2, 1% TX-100, 2 mM DTT, 2 mM ATP), overnight at 4°C, eluted with FLAG peptide, quantitative Western blotting.

In the case of “TgELC1 (Toxoplasma gondii essential light chain 1) (natural protein)”, the fold increase in the amount recovered, against WT TgMLC1 lay within 2 to 3 fold.
The same measure for “TgMyoA (Toxoplasma gondii class XIVa myosin heavy chain) (from UniProt O00934 1-831)”: 2 to 3 fold.
